{"source": "paper PMC2034474", "system": "HIS-GST-cERCC1 (ERCC1 central domain) (Homo sapiens)", "test": "EMSA"}
{"substance": "b10 (bubble10, dsDNA with 10 unpaired bases)", "values": [{"measurement": "Kd", "result": 2.5, "unit": "µM"}]}
